Measurements from US20140179604A1 (U S A REPRESENTED BY THE DEPARTMENT OF VETERANS AFFAIRS, published 2014).
Like-named read-outs stand apart in the source and are kept apart here. Blank lines part the entries; values can stand above or below the molecule they belong to. Non-standard residues stand in square brackets, D forms with d. No end group written: not given here. *: point of attachment. Phe(F5) = N[C@@H](Cc1c(F)c(F)c(F)c(F)c1F)C(=O)O; Desaminotyrosyl = O=C(CCc1ccc(O)cc1)*; NMeY = CN[C@@H](Cc1ccc(O)cc1)C(=O)O; Agmatine = N=C(N)NCCCCN*; Nle = CCCC[C@H](N)C(=O)O; Orn = NCCC[C@H](N)C(=O)O; Abu = CC[C@H](N)C(=O)O; GABA = NCCCC(=O)O

Assays:
[1] = molecular target: T1, GHRH receptor (membrane receptors of human anterior pituitary cells) (human) (UniProt Q02643); assay: competition with [His1,125I-Tyr10,Nle27]hGHRH(1-32)NH2, human pituitary membranes
T1 sequence (looked up): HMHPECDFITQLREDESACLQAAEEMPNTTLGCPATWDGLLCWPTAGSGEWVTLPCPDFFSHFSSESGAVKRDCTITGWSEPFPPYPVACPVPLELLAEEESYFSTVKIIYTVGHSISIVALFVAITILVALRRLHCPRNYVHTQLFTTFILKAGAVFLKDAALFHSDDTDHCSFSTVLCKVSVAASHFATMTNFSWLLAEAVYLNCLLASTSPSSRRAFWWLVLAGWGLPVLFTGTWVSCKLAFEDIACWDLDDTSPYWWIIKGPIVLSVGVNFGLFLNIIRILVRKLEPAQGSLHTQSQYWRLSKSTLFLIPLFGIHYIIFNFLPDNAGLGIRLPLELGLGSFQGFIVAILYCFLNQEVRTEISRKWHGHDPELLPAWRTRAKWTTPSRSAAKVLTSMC

[2] = molecular target: T2, GHRH receptor (membrane receptors of human anterior pituitary cells) (human), Q02643; assay: competition with 125I-JV-1-42, human pituitary membranes
T2 chain: T1 sequence (looked up)

[3] = molecular target: T1, GHRH receptor (membrane receptors of human anterior pituitary cells) (human); assay: competition with 125I-[His1,Nle27]hGHRH(1-32)NH2, human pituitary membranes
[4] = molecular target: T1, GHRH receptor (membrane receptors of human anterior pituitary cells) (human); assay: competition with 125I-JV-1-42, human pituitary membranes
[5] = molecular target: T1, GHRH receptor (membrane receptors of human anterior pituitary cells) (human); assay: as above; remark: listed apart in the source
[6] = molecular target: T3, GHRH receptor (membrane receptors of human anterior pituitary cells) (human, UniProt Q02643 23-423); assay: as above
T3 construct: whole, on cells; Native receptor in a membrane fraction of purchased normal human pituitaries, not intact cells; also called hGHRH receptor; human pituitary membrane homogenates
T3 sequence (looked up): T1 sequence (looked up)
Text: (§1) Normal human pituitaries were purchased from the National Hormone and Peptide Program (A. F. Parlow, Los Angeles, County Harbor-UCLA Medical Center, Torrance, Calif.).

[7] = molecular target: T3, GHRH receptor (membrane receptors of …); assay: competition with 125I-[His1,Nle27]hGHRH(1-32)NH2, human pituitary membranes
[8] = molecular target: T3, GHRH receptor (membrane receptors of …); assay: competition with 125I-JV-1-42, human pituitary membranes; remark: listed apart in the source
Description: as §1
The final binding affinities were expressed as IC₅₀ values and were calculated by using the LIGAND PC computerized curve-fitting program of Munson and Rodbard as modified by McPherson.

[9] = molecular target: T3, GHRH receptor (membrane receptors of …); assay: competition with [His1,125I-Tyr10,Nle27]hGHRH(1-32)NH2, human pituitary membranes
Text: Normal human pituitaries were purchased from the National Hormone and Peptide Program (A. F. Parlow, Los Angeles, County Harbor—UCLA Medical Center, Torrance, Calif.).

Molecule: JI-36 (peptide)
IC50 [1]: 1.82 nM
Relative affinity (Binding potency) vs GHRH (GHRH(1-29) = 1) [1]: 3.25

B4: P-29702 [Dat^1, D-Ala^2, Orn^12, Abu^15, Orn^21, Nle^27, Gln-Gab^30]hGHRH(1-30)NH2 (peptide)
peptide: [Desaminotyrosyl][dA]DAIFTNSYR[Orn]VL[Abu]QLSAR[Orn]LLQDI[Nle]SRQ[GABA]-NH2
SMILES: CCCC[C@H](NC(=O)[C@@H](NC(=O)[C@H](CC(=O)O)NC(=O)[C@H](CCC(N)=O)NC(=O)[C@H](CC(C)C)NC(=O)[C@H](CC(C)C)NC(=O)[C@H](CCCN)NC(=O)[C@H](CCCNC(=N)N)NC(=O)[C@H](C)NC(=O)[C@H](CO)NC(=O)[C@H](CC(C)C)NC(=O)[C@H](CCC(N)=O)NC(=O)[C@H](CC)NC(=O)[C@H](CC(C)C)NC(=O)[C@@H](NC(=O)[C@H](CCCN)NC(=O)[C@H](CCCNC(=N)N)NC(=O)[C@H](Cc1ccc(O)cc1)NC(=O)[C@H](CO)NC(=O)[C@H](CC(N)=O)NC(=O)[C@@H](NC(=O)[C@H](Cc1ccccc1)NC(=O)[C@@H](NC(=O)[C@H](C)NC(=O)[C@H](CC(=O)O)NC(=O)[C@@H](C)NC(=O)CCc1ccc(O)cc1)[C@@H](C)CC)[C@@H](C)O)C(C)C)[C@@H](C)CC)C(=O)N[C@@H](CO)C(=O)N[C@@H](CCCNC(=N)N)C(=O)N[C@@H](CCC(N)=O)C(=O)NCCCC(N)=O
notes: also called MR-702; Peptide 29702
IC50 [6]: 0.86 nM
Relative affinity (Binding potency) vs JI-38 [6]: 5.06 JI-38 = 1
IC50 [7]: 3.3 nM
Relative affinity (Binding potency) compared to JI-38 [7]: 0.83 JI-38 = 1
Relative affinity (Binding potency) compared to hGHRH(1-29) [7]: 2.31 hGHRH(1-29)NH2 = 1
IC50 [8]: 0.05 nM
Relative affinity (Binding potency) vs GHRH [8]: 81.2 GHRH(1-29) = 1
Relative affinity (Binding potency) vs JI-38 [8]: 34.2 JI-38 = 1

B5: JI-38 [Dat^1, Gln^8, Orn^12,21, Abu^15, Nle^27, Asp^28, Agm^29]hGHRH(1-29)NH2 (peptide)
peptide: [Desaminotyrosyl]ADAIFTQSYR[Orn]VL[Abu]QLSAR[Orn]LLQDI[Nle]D[Agmatine]
SMILES: CCCC[C@H](NC(=O)[C@@H](NC(=O)[C@H](CC(=O)O)NC(=O)[C@H](CCC(N)=O)NC(=O)[C@H](CC(C)C)NC(=O)[C@H](CC(C)C)NC(=O)[C@H](CCCN)NC(=O)[C@H](CCCNC(=N)N)NC(=O)[C@H](C)NC(=O)[C@H](CO)NC(=O)[C@H](CC(C)C)NC(=O)[C@H](CCC(N)=O)NC(=O)[C@H](CC)NC(=O)[C@H](CC(C)C)NC(=O)[C@@H](NC(=O)[C@H](CCCN)NC(=O)[C@H](CCCNC(=N)N)NC(=O)[C@H](Cc1ccc(O)cc1)NC(=O)[C@H](CO)NC(=O)[C@H](CCC(N)=O)NC(=O)[C@@H](NC(=O)[C@H](Cc1ccccc1)NC(=O)[C@@H](NC(=O)[C@H](C)NC(=O)[C@H](CC(=O)O)NC(=O)[C@H](C)NC(=O)CCc1ccc(O)cc1)[C@@H](C)CC)[C@@H](C)O)C(C)C)[C@@H](C)CC)C(=O)N[C@@H](CC(=O)O)C(=O)NCCCCNC(=N)N
notes: Non-coded residues replacing another residue are written X
IC50 [9]: 1.95 nM
Relative affinity (Binding potency) vs GHRH [9]: 3.03 GHRH(1-29) = 1
Relative affinity (Binding potency) vs JI-38 [9]: 1 JI-38 = 1
IC50 [6]: 4.35 nM
Relative affinity (Binding potency) vs JI-38 [6]: 1 JI-38 = 1
IC50 [7]: 2.74 nM
Relative affinity (Binding potency) compared to JI-38 [7]: 1 JI-38 = 1
Relative affinity (Binding potency) compared to hGHRH(1-29) [7]: 2.79 hGHRH(1-29)NH2 = 1
IC50 [8]: 1.71 nM
Relative affinity (Binding potency) vs GHRH [8]: 2.4 GHRH(1-29) = 1
Relative affinity (Binding potency) vs JI-38 [8]: 1 JI-38 = 1

Results, then the molecule that gave them:

IC50 [1]: 1.37 nM
Relative affinity (Binding potency) vs GHRH (GHRH(1-29) = 1) [1]: 4.32
Molecule: JI-34 (peptide)

IC50 [2]: 1.22 nM
Relative affinity (Binding potency) vs JI-38 [2]: 3.57 JI-38 = 1
B1: P-29703 [N-Me-Tyr^1, Gln^8, Orn^12, Abu^15, Orn^21, Nle^27, Gln-Gab^30]hGHRH(1-30)NH2 (peptide)
chain: [NMeY]ADAIFTQSYR[Orn]VL[Abu]QLSAR[Orn]LLQDI[Nle]SRQ[GABA]-NH2
modifications: N-terminus assumed
SMILES: CCCC[C@H](NC(=O)[C@@H](NC(=O)[C@H](CC(=O)O)NC(=O)[C@H](CCC(N)=O)NC(=O)[C@H](CC(C)C)NC(=O)[C@H](CC(C)C)NC(=O)[C@H](CCCN)NC(=O)[C@H](CCCNC(=N)N)NC(=O)[C@H](C)NC(=O)[C@H](CO)NC(=O)[C@H](CC(C)C)NC(=O)[C@H](CCC(N)=O)NC(=O)[C@H](CC)NC(=O)[C@H](CC(C)C)NC(=O)[C@@H](NC(=O)[C@H](CCCN)NC(=O)[C@H](CCCNC(=N)N)NC(=O)[C@H](Cc1ccc(O)cc1)NC(=O)[C@H](CO)NC(=O)[C@H](CCC(N)=O)NC(=O)[C@@H](NC(=O)[C@H](Cc1ccccc1)NC(=O)[C@@H](NC(=O)[C@H](C)NC(=O)[C@H](CC(=O)O)NC(=O)[C@H](C)NC(=O)[C@H](Cc1ccc(O)cc1)NC)[C@@H](C)CC)[C@@H](C)O)C(C)C)[C@@H](C)CC)C(=O)N[C@@H](CO)C(=O)N[C@@H](CCCNC(=N)N)C(=O)N[C@@H](CCC(N)=O)C(=O)NCCCC(N)=O

IC50 [3]: 1.02 nM
Relative affinity (Binding potency) compared to JI-38 [3]: 2.69 JI-38 = 1
Relative affinity (Binding potency) compared to hGHRH(1-29) (hGHRH(1-29)NH2 = 1) [3]: 7.5
IC50 [4]: 0.01 nM
Relative affinity (Binding potency) vs GHRH (GHRH(1-29) = 1) [4]: 406
Relative affinity (Binding potency) vs JI-38 [4]: 171 JI-38 = 1
IC50 [5]: 0.27 nM
Relative affinity (Binding potency) vs JI-38 [5]: 16.1 JI-38 = 1
B2: P-20356 [N-Me-Tyr^1, Gln^8, Orn^12, Abu^15, Orn^21, Nle^27, Asp^28, Agm^29]hGHRH(1-29)NH2 (peptide, from a related filing)
peptide: [NMeY]ADAIFTQSYR[Orn]VL[Abu]QLSAR[Orn]LLQDI[Nle]D[Agmatine]
modifications: not fully specified (C-terminus)

IC50 [6]: 0.33 nM
Relative affinity (Binding potency) vs JI-38 [6]: 13.2 JI-38 = 1
IC50 [7]: 2.16 nM
Relative affinity (Binding potency) compared to JI-38 [7]: 1.27 JI-38 = 1
Relative affinity (Binding potency) compared to hGHRH(1-29) [7]: 3.54 hGHRH(1-29)NH2 = 1
IC50 [8]: 0.07 nM
Relative affinity (Binding potency) vs GHRH [8]: 58 GHRH(1-29) = 1
Relative affinity (Binding potency) vs JI-38 [8]: 24.4 JI-38 = 1
B3: P-25502 [Dat^1, D-Ala^2, Fpa5^6, Orn^12, Abu^15, Orn^21, Nle^27, Gab^30]hGHRH(1-30)NH2 (peptide)
peptide: [Desaminotyrosyl][dA]DAI[Phe(F5)]TNSYR[Orn]VL[Abu]QLSAR[Orn]LLQDI[Nle]SR[GABA]-NH2
SMILES: CCCC[C@H](NC(=O)[C@@H](NC(=O)[C@H](CC(=O)O)NC(=O)[C@H](CCC(N)=O)NC(=O)[C@H](CC(C)C)NC(=O)[C@H](CC(C)C)NC(=O)[C@H](CCCN)NC(=O)[C@H](CCCNC(=N)N)NC(=O)[C@H](C)NC(=O)[C@H](CO)NC(=O)[C@H](CC(C)C)NC(=O)[C@H](CCC(N)=O)NC(=O)[C@H](CC)NC(=O)[C@H](CC(C)C)NC(=O)[C@@H](NC(=O)[C@H](CCCN)NC(=O)[C@H](CCCNC(=N)N)NC(=O)[C@H](Cc1ccc(O)cc1)NC(=O)[C@H](CO)NC(=O)[C@H](CC(N)=O)NC(=O)[C@@H](NC(=O)[C@H](Cc1c(F)c(F)c(F)c(F)c1F)NC(=O)[C@@H](NC(=O)[C@H](C)NC(=O)[C@H](CC(=O)O)NC(=O)[C@@H](C)NC(=O)CCc1ccc(O)cc1)[C@@H](C)CC)[C@@H](C)O)C(C)C)[C@@H](C)CC)C(=O)N[C@@H](CO)C(=O)N[C@@H](CCCNC(=N)N)C(=O)NCCCC(N)=O
notes: also called MR-502; Peptide 25502
